Test results published in the supplement of paper PMC5998384.

Columns and labels:
[1] = system: HeLa Kyoto; assay: solubility in G1/S (NP-40 vs SDS abundance) (log2 ratio); higher = more soluble; conditions: cell cycle stage: G1/S
[2] = system: HeLa Kyoto; assay: melting temperature (median over replicates), in situ; higher = more thermally stable
[3] = system: HeLa Kyoto; assay: solubility change mitosis vs G1/S (difference of NP-40 vs SDS log2 ratios) (log2 ratio difference); higher = more soluble in mitosis
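Wherever melting temperature (median over replicates), in situ is given: HeLa Kyoto cells synchronized by double thymidine or nocodazole block, proteins quantified by TMT10plex mass spectrometry, three independent biological replicates.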
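Wherever solubility change mitosis vs G1/S (difference of NP-40 vs SDS log2 ratios) is given: synchronized HeLa Kyoto cells (double thymidine block for G1/S, nocodazole release for mitosis), protein amounts in NP-40 versus SDS lysates quantified by mass spectrometry, three biological replicates.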
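Wherever solubility in G1/S (NP-40 vs SDS abundance) is given: HeLa Kyoto cells arrested at G1/S by double thymidine block, proteins quantified by TMT10plex mass spectrometry in mild NP-40 versus SDS extracts, three biological replicates.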

Sequence | solubility in G1/S (log2) [1] | melting temperature ([2]; cell cycle stage: mitosis) | solubility change mitosis (log2) [3] | melting temperature ([2]; cell cycle stage: G1/S)
MIEDTMTLLSLLGRIMRYFLLRPETLFLLCISLALWSYFFHTDEVKTIVKSSRDAVKMVKGKVAEIMQNDRLGGLDVLEAEFSKTWEFKNHNVAVYSIQGRRDHMEDRFEVLTDLANKTHPSIFGIFDGHGGETAAEYVKSRLPEALKQHLQDYEKDKENSVLSYQTILEQQILSIDREMLEKLTVSYDEAGTTCLIALLSDKDLTVANVGDSRGVLCDKDGNAIPLSHDHKPYQLKERKRIKRAGGFISFNGSWRVQGILAMSRSLGDYPLKNLNVVIPDPDILTFDLDKLQPEFMILASDGLWDAFSNEEAVRFIKERLDEPHFGAKSIVLQSFYRGCPDNITVMVVKFRNSSKTEEQ [PPM1L] | -0.0862 | 53.9 °C | -0.142 | 
MALVRGAEPAAGPSRWLPTHVQVTVLRARGLRGKSSGAGSTSDAYTVIQVGREKYSTSVVEKTHGCPEWREECSFELPPGALDGLLRAQEADAGPAPWAASSAAACELVLTTMHRSLIGVDKFLGQATVALDEVFGAGRAQHTQWYKLHSKPGKKEKERGEIEVTIQFTRNNLSASMFDLSMKDKPRSPFSKIRDKMKGKKKYDLESASAILPSSAIEDPDLGSLGKMGKAKGFFLRNKLRKSSLTQSNTSLGSDSTLSSASGSLAYQGPGAELLTRSPSRSSWLSTEGGRDSAQSPKLFTHKRTYSDEANQMRVAPPRALLDLQGHLDAASRSSLCVNGSHIYNEEPQGPVRHRSSISGSLPSSGSLQAVSSRFSEEGPRSTDDTWPRGSRSNSSSEAVLGQEELSAQAKVLAPGASHPGEEEGARLPEGKPVQVATPIVASSEAVAEKEGARKEERKPRMGLFHHHHQGLSRSELGRRSSLGEKGGPILGASPHHSSSGEEKAKSSWFGLREAKDPTQKPSPHPVKPLSAAPVEGSPDRKQSRSSLSIALSSGLEKLKTVTSGSIQPVTQAPQAGQMVDTKRLKDSAVLDQSAKYYHLTHDELISLLLQRERELSQRDEHVQELESYIDRLLVRIMETSPTLLQIPPGPPK [RAB11FIP5] | 0.0739 | 49.3 °C | -0.217 | 50.1 °C
MAAGERSWCLCKLLRFFYSLFFPGLIVCGTLCVCLVIVLWGIRLLLQRKKKLVSTSKNGKNQMVIAFFHPYCNAGGGGERVLWCALRALQKKYPEAVYVVYTGDVNVNGQQILEGAFRRFNIRLIHPVQFVFLRKRYLVEDSLYPHFTLLGQSLGSIFLGWEALMQCVPDVYIDSMGYAFTLPLFKYIGGCQVGSYVHYPTISTDMLSVVKNQNIGFNNAAFITRNPFLSKVKLIYYYLFAFIYGLVGSCSDVVMVNSSWTLNHILSLWKVGNCTNIVYPPCDVQTFLDIPLHEKKMTPGHLLVSVGQFRPEKNHPLQIRAFAKLLNKKMVESPPSLKLVLIGGCRNKDDELRVNQLRRLSEDLGVQEYVEFKINIPFDELKNYLSEATIGLHTMWNEHFGIGVVECMAAGTIILAHNSGGPKLDIVVPHEGDITGFLAESEEDYAETIAHILSMSAEKRLQIRKSARASVSRFSDQEFEVTFLSSVEKLFK [ALG11] | 0.114 | 52.4 °C | -0.199 | 
MASREEVLALQAEVAQREEELNSLKQKLASALLAEQEPQPERLVPVSPLPPKAALSRDEILRYSRQLVLPELGVHGQLRLGTACVLIVGCGGLGCPLAQYLAAAGVGRLGLVDYDVVEMSNLARQVLHGEALAGQAKAFSAAASLRRLNSAVECVPYTQALTPATALDLVRRYDVVADCSDNVPTRYLVNDACVLAGRPLVSASALRFEGQITVYHYDGGPCYRCIFPQPPPAETVTNCADGGVLGVVTGVLGCLQALEVLKIAAGLGPSYSGSLLLFDALRGHFRSIRLRSRRLDCAACGERPTVTDLLDYEAFCGSSATDKCRSLQLLSPEERVSVTDYKRLLDSGAFHLLLDVRPQVEVDICRLPHALHIPLKHLERRDAESLKLLKEAIWEEKQGTQEGAAVPIYVICKLGNDSQKAVKILQSLSAAQELDPLTVRDVVGGLMAWAAKIDGTFPQY [MOCS3] | 0.156 | 49.5 °C | -0.0562 | 51.3 °C
MTGKKSSREKRRKRSSQEAAAALAAPDIVPALASGSSGSTSGCGSAGGCGSVSCCGNANFSGSVTGGGSGGSCWGGSSVERSERRKRRSTDSSSVSGSLQQETKYILPTLEKELFLAEHSDLEEGGLDLTVSLKPVSFYISDKKEMLQQCFCIIGEKKLQKMLPDVLKNCSIEEIKKLCQEQLELLSEKKILKILEGDNGMDSDMEEEADDGSKMGSDLVSQQDICIDSASSVRENKQPEGLELKQGKGEDSDVLSINADAYDSDIEGPCNEEAAAPEAPENTVQSEAGQIDDLEKDIEKSVNEILGLAESSPNEPKAATLAVPPPEDVQPSAQQLELLELEMRARAIKALMKAGDIKKPA [CAAP1] | -0.326 | 51.8 °C | 0.56 | 47.3 °C
MENCSAASTFLTDSLELELGTEWCKPPYFSCAVDNRGGGKHFSGESYLCSGALKRLILNLDPLPTNFEEDTLEIFGIQWVTETALVNSSRELFHLFRQQLYNLETLLQSSCDFGKVSTLHCKADNIRQQCVLFLHYVKVFIFRYLKVQNAESHVPVHPYEALEAQLPSVLIDELHGLLLYIGHLSELPSVNIGAFVNQNQIKLFPPSWHLLHLHLDIHWLVLEILYMLGEKLKQVVYGHQFMNLASDNLTNISLFEEHCETLLCDLISLSLNRYDKVRSSESLMSDQCPCLCIKELWVLLIHLLDHRSKWFVSESFWNWLNKLLKTLLEKSSDRRRSSMPVIQSRDPLGFSWWIITHVASFYKFDRHGVPDEMRKVESNWNFVEELLKKSISVQGVILEEQLRMYLHCCLTLCDFWEPNIAIVTILWEYYSKNLNSSFSISWLPFKGLANTMKSPLSMLEMVKTCCCDKQDQELYKSSSSYTIFLCILAKVVKKAMKSNGPHPWKQVKGRIYSKFHQKRMEELTEVGLQNFFSLFLLLAAVAEVEDVASHVLDLLNFLKPAFVTSQRALIWKGHMAFLLMYAQKNLDIGVLAEKFSCAFREKAKEFLVSKNEEMVQRQTIWTLLSIYIDGVQEVFETSYCLYPSHEKLLNDGFSMLLRACRESELRTVLSFLQAVLARIRSMHQQLCQELQRDNVDLFVQSSLSAKERHLAAVASALWRHFFSFLKSQRMSQVVPFSQLADAAADFTLLAMDMPSTAPSDFQPQPVISIIQLFGWDDIICPQVVARYLSHVLQNSTLCEALSHSGYVSFQALTVRSWIRCVLQMYIKNLSGPDDLLIDKNLEEAVEKEYMKQLVKLTRLLFNLSEVKSIFSKAQVEYLSISEDPKKALVRFFEAVGVTYGNVQTLSDKSAMVTKSLEYLGEVLKYIKPYLGKKVFSAGLQLTYGMMGILVKSWAQIFATSKAQKLLFRIIDCLLLPHAVLQQEKELPAPMLSAIQKSLPLYLQGMCIVCCQSQNPNAYLNQLLGNVIEQYIGRFLPASPYVSDLGQHPVLLALRNTATIPPISSLKKCIVQVIRKSYLEYKGSSPPPRLASILAFILQLFKETNTDIYEVELLLPGILKCLVLVSEPQVKRLATENLQYMVKACQVGSEEEPSSQLTSVFRQFIQDYGMRYYYQVYSILETVATLDQQVVIHLISTLTQSLKDSEQKWGLGRNIAQREAYSKLLSHLGQMGQDEMQRLENDNT [MMS22L] | -0.523 |  | -0.109 | 
MDDIADRMRMDAGEVTLVNHNSVFKTHLLPQTGFPEDQLSLSDQQILSSRQGHLDRSFTCSTRSAAYNPSYYSDNPSSDSFLGSGDLRTFGQSANGQWRNSTPSSSSSLQKSRNSRSLYLETRKTSSGLSNSFAGKSNHHCHVSAYEKSFPIKPVPSPSWSGSCRRSLLSPKKTQRRHVSTAEETVQEEEREIYRQLLQMVTGKQFTIAKPTTHFPLHLSRCLSSSKNTLKDSLFKNGNSCASQIIGSDTSSSGSASILTNQEQLSHSVYSLSSYTPDVAFGSKDSGTLHHPHHHHSVPHQPDNLAASNTQSEGSDSVILLKVKDSQTPTPSSTFFQAELWIKELTSVYDSRARERLRQIEEQKALALQLQNQRLQEREHSVHDSVELHLRVPLEKEIPVTVVQETQKKGHKLTDSEDEFPEITEEMEKEIKNVFRNGNQDEVLSEAFRLTITRKDIQTLNHLNWLNDEIINFYMNMLMERSKEKGLPSVHAFNTFFFTKLKTAGYQAVKRWTKKVDVFSVDILLVPIHLGVHWCLAVVDFRKKNITYYDSMGGINNEACRILLQYLKQESIDKKRKEFDTNGWQLFSKKSQEIPQQMNGSDCGMFACKYADCITKDRPINFTQQHMPYFRKRMVWEILHRKLL [SENP1] | -0.531 |  | 0.402 | 
MSSPPEGKLETKAGHPPAVKAGGMRIVQKHPHTGDTKEEKDKDDQEWESPSPPKPTVFISGVIARGDKDFPPAAAQVAHQKPHASMDKHPSPRTQHIQQPRK [DAP] | -0.1 |  | 0.309 | 
MTALSARMLTRSRSLGPGAGPRGCREEPGPLRRREAAAEARKSHSPVKRPRKAQRLRVAYEGSDSEKGEGAEPLKVPVWEPQDWQQQLVNIRAMRNKKDAPVDHLGTEHCYDSSAPPKVRRYQVLLSLMLSSQTKDQVTAGAMQRLRARGLTVDSILQTDDATLGKLIYPVGFWRSKVKYIKQTSAILQQHYGGDIPASVAELVALPGVGPKMAHLAMAVAWGTVSGIAVDTHVHRIANRLRWTKKATKSPEETRAALEEWLPRELWHEINGLLVGFGQQTCLPVHPRCHACLNQALCPAAQGL [NTHL1] | 0.0579 |  | 0.29 | 
MEKSWMLWNFVERWLIALASWSWALCRISLLPLIVTFHLYGGIILLLLIFISIAGILYKFQDVLLYFPEQPSSSRLYVPMPTGIPHENIFIRTKDGIRLNLILIRYTGDNSPYSPTIIYFHGNAGNIGHRLPNALLMLVNLKVNLLLVDYRGYGKSEGEASEEGLYLDSEAVLDYVMTRPDLDKTKIFLFGRSLGGAVAIHLASENSHRISAIMVENTFLSIPHMASTLFSFFPMRYLPLWCYKNKFLSYRKISQCRMPSLFISGLSDQLIPPVMMKQLYELSPSRTKRLAIFPDGTHNDTWQCQGYFTALEQFIKEVVKSHSPEEMAKTSSNVTII [ABHD13] | -0.091 |  | -0.176 | 
